Reference: PMC1474074
Where two headings read alike, the source gives them in different places.

B1: B-siRNA (anti-lamin A/C) (dsRNA)
RNA 1: GGAACUGGACUUCCAGAAGAACAUCUA
RNA 2: UAGAUGUUCUUCUGGAAGUCCAGUUCC
modifications: 5'-biotin on sense strand
B2: BSS-siRNA (anti-lamin A/C) (dsRNA)
RNA 1: GGAACUGGACUUCCAGAAGAACAUCUA
RNA 2: UAGAUGUUCUUCUGGAAGUCCAGUUCC
modifications: 5'-biotin via C6 S-S disulfide linker on sense strand

Experiments:
[1] = molecular target: T1, streptavidin (UniProt P22629 25-183); experiment: EMSA
T1 sequence (P22629 25-183): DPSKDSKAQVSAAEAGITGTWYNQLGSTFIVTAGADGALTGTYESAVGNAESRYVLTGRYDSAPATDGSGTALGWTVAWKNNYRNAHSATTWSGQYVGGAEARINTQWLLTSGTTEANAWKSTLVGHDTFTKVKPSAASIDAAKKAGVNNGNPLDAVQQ

[2] = molecular target: T1, streptavidin; experiment: EMSA; remark: listed apart in the source

Binder	binding result [1]	binding result [2]
B1	binds	
B2		binds
